Measurements from patent publication US20250250357A1 (NANJING ZAIMING PHARMACEUTICAL, published 2025).
Read-outs that look alike come from different tables or passages of the source.

Tests used:
[1] = molecular target: T1, human MSLN-R3 protein (Met487-Ser606 of NCBI AAH09272.1) expressed on HEK293T-hMSLN-R3 cells (human, UniProt Q13421 487-606); test: FACS on HEK293T-hMSLN-R3 cells
T1 construct: also called Region3

[2] = molecular target: T2, monkey MSLN full-length protein (NCBI: XP_028696439.1) expressed on HEK293T-monkey MSLN cells (monkey); test: FACS on HEK293T-monkey MSLN cells
T2 construct: Whole encoded precursor
T2 chain: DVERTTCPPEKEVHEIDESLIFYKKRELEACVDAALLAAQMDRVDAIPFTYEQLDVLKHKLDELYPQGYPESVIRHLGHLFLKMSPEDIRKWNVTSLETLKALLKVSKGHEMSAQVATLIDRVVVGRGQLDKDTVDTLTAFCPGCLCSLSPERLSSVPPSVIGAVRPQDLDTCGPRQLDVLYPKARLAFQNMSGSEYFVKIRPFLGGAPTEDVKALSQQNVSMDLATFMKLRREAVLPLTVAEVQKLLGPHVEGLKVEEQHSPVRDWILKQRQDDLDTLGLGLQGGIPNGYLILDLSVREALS

[3] = molecular target: T3, human MSLN full-length protein (NCBI: AAH09272.1) expressed on HEK293T-hMSLN-B8 cells (human, UniProt Q13421 296-598); test: FACS on HEK293T-hMSLN-B8 cells
T3 construct: Whole encoded precursor
T3 sequence (Q13421 other isoform, or with tags, fused parts or gaps limits assumed): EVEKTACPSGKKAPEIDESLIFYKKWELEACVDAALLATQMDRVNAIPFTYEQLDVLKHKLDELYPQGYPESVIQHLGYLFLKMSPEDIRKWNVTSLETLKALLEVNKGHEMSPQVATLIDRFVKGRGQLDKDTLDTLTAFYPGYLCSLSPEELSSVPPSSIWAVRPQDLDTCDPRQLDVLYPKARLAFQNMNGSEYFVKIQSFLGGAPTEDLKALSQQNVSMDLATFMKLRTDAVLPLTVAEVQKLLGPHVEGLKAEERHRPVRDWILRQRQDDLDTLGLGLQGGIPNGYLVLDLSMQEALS

[4] = molecular target: T4, human MSLN protein endogenously expressed on OVCAR3 tumor cells (human, UniProt Q13421 296-598); test: FACS on OVCAR3 cells
T4 construct: whole, on cells; Endogenous target on OVCAR3 cells; kept apart from the recombinant full-length construct; also called mesothelin
T4 sequence (Q13421 other isoform, or with tags, fused parts or gaps): as the sequence (Q13421 other isoform, or with tags, fused parts or gaps limits assumed) above, with P14R counted along it

[5] = molecular target: T1, human MSLN-R3 protein (Met487-Ser606 of …); test: FACS on HEK293T-hMSLN-R3 cells; remark: listed apart in the source
[6] = molecular target: T1, human MSLN-R3 protein (Met487-Ser606 of …); test: FACS on HEK293T-hMSLN-R3 cells; remark: listed apart in the source

T1 sequence (Q13421 495-614): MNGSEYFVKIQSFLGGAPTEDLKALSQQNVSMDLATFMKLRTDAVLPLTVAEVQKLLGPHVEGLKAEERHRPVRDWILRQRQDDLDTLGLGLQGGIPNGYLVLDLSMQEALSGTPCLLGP

B1: S009-F3.7.3 (antibody, human IgG1, kappa, V domains shown)
VH: EVNFEESGGGLVQPGGSMKLSCVASGFTFSNYWMNWVRQSPEKGLEWVAQIRLKSDNYATHYAESVKGRFTISRDDFKSSVYLQMNNLRAEDTGIYYCTVGTGGYWGQGTTLTVSS
VL: DIVLTQSPASLAMSLGKRATISCRASESVSIVGTNVIHWFQQKPGQPPKLLIYHASNLETGVPARFSGSGSGTDFTLTIDPVEEDDVAIYHCLQSRKIPWTFGGGTKLEIKR
notes: human-murine chimeric antibody, human IgG1/kappa constant regions
EC50 [1]: 0.72 nM
Maximum mean fluorescence intensity [1]: 7920
Maximum mean fluorescence intensity [2]: 7100
EC50 [3]: 2.25 nM
Maximum mean fluorescence intensity [3]: 88800
EC50 [4]: 1.94 nM
Maximum mean fluorescence intensity [4]: 3700

B2: S009-F3.16.1 (antibody, human IgG1, kappa, V domains shown)
VH: EVKFEESGGGLVQPGGSMKLSCVASGFTFSNYWMNWVRQSPEKGLEWVAQIRLKSDNYATHYAESVKGRFSISRDDSKSSVYLQMNNLRAEDTGIYYCSVGTGGYWGQGTTLTVSS
VL: DIVLTQSPASLALSPGKRATISCRASESVSIIGTDVIHWFQQKPGQPPKLLIYHASNLETGVPARFSGSGSRTDFTLTIDPVEEDDVAIYYCLQSRKIPWTFGGGTKLEIKR
notes: as for B1
EC50 [1]: 0.43 nM
Maximum mean fluorescence intensity [1]: 8060
EC50 [2]: 1.4 nM
Maximum mean fluorescence intensity [2]: 24800
EC50 [3]: 1.46 nM
Maximum mean fluorescence intensity [3]: 89800
EC50 [4]: 1.61 nM
Maximum mean fluorescence intensity [4]: 4190

B3: S009-F3.74.20 (antibody, human IgG1, kappa, V domains shown)
VH: RVQLQQSGAELVRPGASVTLSCKASGYTFTDSEMHWVKQTPVHGLEWIGAIDPEIDGTAYNQNFRDKAILTADKSSSTAYMELRSLTSEDSAVYYCTTYFGSGYGYFDVWGTGTTVTVSS
VL: DVVMTQTPLSLSVSLGDQASISCRSSQSLVYSNGNTYLHWFLQKPGQSPKLLIYKVSNRFSGVPDRFSGSGSGTDFTLKINRVEAEDLGVYFCSQSTHIPFTFGAGTKLELKR
notes: as for B1
EC50 [1]: 0.62 nM
Maximum mean fluorescence intensity [1]: 5070
Maximum mean fluorescence intensity [2]: 188
EC50 [3]: 8.68 nM
Maximum mean fluorescence intensity [3]: 36400
Maximum mean fluorescence intensity [4]: 613

B4: S009-F3-63.5 (antibody, human IgG1, kappa, V domains shown)
VH: QVQLQQSGAELVRPGASVTLSCKASGYTFTDYEMHWVKQTPVHGLEWIGGIDPETGDTAYNQQFKGKAILTADRSSSTAYMELRSLTSEDSAVYYCTNYASSREDYWGQGTTLTVSS
VL: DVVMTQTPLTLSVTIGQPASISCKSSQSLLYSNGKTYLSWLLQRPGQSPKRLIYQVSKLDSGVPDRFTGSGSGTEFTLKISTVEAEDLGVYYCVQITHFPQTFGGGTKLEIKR
notes: as for B1
EC50 [1]: 1.18 nM
Maximum mean fluorescence intensity [1]: 8270
Maximum mean fluorescence intensity [2]: 105
binding result [2]: no binding
Maximum mean fluorescence intensity [3]: 35400
Maximum mean fluorescence intensity [4]: 227

B5: S009-F3.45.21 (antibody, human IgG1, kappa, V domains shown)
VH: DVQLQESGPGLVKPSQSLSLTCSVTGDSITSGYYWNWIRQFPGNKLEWMGFIRFDGTNNYNPSLKNRISITRDTSKNQFFLKLNSVTTEDTATYYCAREGSYAPAWFAYWGQGTLVTVSA
VL: QIVLTQSPAIMSASPGEKVTMTCSASSSLSYMYWYQQKPGSSPRLLIYDTSNLASGVPVRFSGSGSGTSYSLTISRMEAEDAATYYCQQWSSYPPTFGGGTKLEIKR
notes: as for B1
Maximum mean fluorescence intensity [1]: 81
binding result [1]: no binding
EC50 [2]: 0.56 nM
Maximum mean fluorescence intensity [2]: 41100
EC50 [3]: 1.41 nM
Maximum mean fluorescence intensity [3]: 97600
EC50 [4]: 5.61 nM
Maximum mean fluorescence intensity [4]: 9710

B6: S009-F3.38.10 (antibody, human IgG1, kappa, V domains shown)
VH: EVQLQQSGPVLVKPGASVKMSCEASGYIFTDYYMNWVKKSHGKSLEWIGVINPKNGVISHNQKFKGKATLTVDKSSNTAYMELSSLTSEDSAVYYCANYGSRFYAMDYWGQGTSVTVSS
VL: DVVMTQTPLSLPVSLGDQASISCRSSQSLIHSDGNTYLQWYLQKSGQSPKLLIYKVSNRFSGVPDRFSGSGSGTDFTLKISRVETEDLGVYFCSQTTHVPFTFGSGTKLEIKR
notes: as for B1
EC50 [1]: 3.41 nM
Maximum mean fluorescence intensity [1]: 6770
EC50 [2]: 4.63 nM
Maximum mean fluorescence intensity [2]: 22300
EC50 [3]: 6.84 nM
Maximum mean fluorescence intensity [3]: 80600
Maximum mean fluorescence intensity [4]: 2620

B7: S009-F3.80.22 (antibody, human IgG1, kappa, V domains shown)
VH: QVQLQQSGAELVRPGASVTLSCKASGYTFTDYEIHWVKQTPVHGLEWIGAFDPEIGGSAYNQKFKDRATLTADKSSSTAYMELHSLTAEDSAVYYCTDYYGSSSGYFDVWGTGTTVTVSS
VL: DVVMTQTPLSLPVSLGDQASISCRSSQSLEHNNGNTYLHWFLHKPGQSPKLLIYKVSNRFSGVPDRFSGSGSGTDFTLKISRVEAEDLGVYFCSQSTHVPFTFGSGTKLEIKR
notes: as for B1
EC50 [1]: 0.99 nM
Maximum mean fluorescence intensity [1]: 4800
Maximum mean fluorescence intensity [2]: 57
binding result [2]: no binding
EC50 [3]: 36.4 nM
Maximum mean fluorescence intensity [3]: 24700
Maximum mean fluorescence intensity [4]: 263

B8: S009-F3.23.1 (antibody, human IgG1, kappa, V domains shown)
VH: QVQLQQSGADLVRPGASVTLSCKASGYTFTDYEMHWVKQTPVHGLEWIGAIDPETGDTVYNQNFKGKAILTADKSSSTAYMELRSLTSEDSAVYYCTRYGYDWGWGQGTTLTVSS
VL: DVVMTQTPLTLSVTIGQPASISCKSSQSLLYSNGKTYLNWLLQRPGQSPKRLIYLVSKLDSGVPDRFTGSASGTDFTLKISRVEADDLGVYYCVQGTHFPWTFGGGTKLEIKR
notes: as for B1
EC50 [1]: 0.84 nM
Maximum mean fluorescence intensity [1]: 4240
Maximum mean fluorescence intensity [2]: 88
binding result [2]: no binding
EC50 [3]: 33.7 nM
Maximum mean fluorescence intensity [3]: 26400
Maximum mean fluorescence intensity [4]: 288

B9: Tab106 (YP218, hIgG1) (antibody, V domains shown)
VH: QQQLEESGGGLVKPEGSLTLTCKASGFDLGFYFYACWVRQAPGKGLEWIACIYTAGSGSTYYASWAKGRFTISKASSTTVTLQMTSLAAADTATYFCARSTANTRSTYYLNLWGPGTLVTVSS
VL: DVVMTQTPASVSEPVGGTVTIKCQASQRISSYLSWYQQKPGQRPKLLIFGASTLASGVPSRFKGSGSGTEYTLTISDLECADAATYYCQSYAYFDSNNWHAFGGGTEVVVRT
notes: Control antibody; also called YP218 human IgG1 antibody
EC50 [5]: 0.28 nM
Maximum mean fluorescence intensity [5]: 25400
EC50 [6]: 0.65 nM
Maximum mean fluorescence intensity [6]: 7460

B10: S009-F3.51.8 (antibody, human IgG1, kappa, V domains shown)
VH: QVQLQQSGAELVRPGASVTLSCKASGYTFTDYEMHWVKQTPVHGLEWIGGFDPETGGTAHNQKFKGKAILTADKSSSTAYMELRSLTSEDSAVYYCSNYGSIWGDCWGQGTSVTVSS
VL: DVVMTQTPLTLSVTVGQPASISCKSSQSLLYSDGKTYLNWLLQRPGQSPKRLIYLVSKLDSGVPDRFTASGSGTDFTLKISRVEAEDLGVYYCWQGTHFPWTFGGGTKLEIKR
notes: as for B1
EC50 [1]: 0.75 nM
Maximum mean fluorescence intensity [1]: 4470
Maximum mean fluorescence intensity [2]: 88
binding result [2]: no binding
EC50 [3]: 21.8 nM
Maximum mean fluorescence intensity [3]: 27900
Maximum mean fluorescence intensity [4]: 337
